Data reported in the DeepSol protein solubility set.

Assay: soluble on expression in E. coli; label from the status in PepcDB or PDB records

| Sequence | soluble on expression in E. coli |
| --- | --- |
| MAHHHHHHMSTSRPAAVLHAASDDEKEDDPMAVLWQHERHVLVLTRAGKPIFSQHGHEEQLSPLCALLQVLLCIHEDKGGGDEQSRGPSQPAPRSDGTASSAAVKDELHQVVYYRSKSASGQACHQGDVNAQVQALTLFFYVQGDLIYLMSVRSVAPSLPAGAVEMSNAEGECEPPPLASYCLAQLRHVHHCILLVLPTVNTLLTRSPGLDVMAMYTSADRAALRELIESYQTELTYAVGAVATLALSVEKRRVVERALLCCYRSCADAAVGPPAHQLFSFLYFKNYLVAAVGPPETYAADPKVSVSAPLALGPDTALCGCLHVDDALLLYRYARSLVSRQLGEAWVPVCLPRFNSTGYLWCYAVNFTRYARELRKQQGKTEWPKVWEEHTELDIMLLHVSASQDDFAALSRSTRRFAQILCAPAVEDNFYYRLEEELYYRTPAPLTELLPSSHTSVSTCSSRDLSGYTDGVPVVVWRGHSRQ | not soluble |
| MAHHHHHHMSTYANSQARLNRVAPQLRPAGVHGDWTEATMAELLSSYNPNGIITPDHIRSFHHRGCDVGEQRRHWGLAKDAPVDPNMRHGVKGKETGGADACLRPEMYADKMTALLDAQLESQYLSNRRKPLGHAPVPRDPVPVPFGGFGITQKKGDSTQSVLAGYRSVDVLHPAGEQLTRNYDWEKAGIDPTQHRFGKPSARSDGTTAAALFNDSATQLTSKLAKDYETTVAKELGKSKRYGFDDPAEWDEEKRGSVTKFGATGTAASYFQTEQPTVRELLSSWAQTASGPRADKAASGKAGQQGLTGSADSAVTAKADASAAAPVASGPSLTEPLKDEARAHQLLYPCHYVSLGVESKYFAGGRPLEDIRRLCHKCSFGLSDADIDAVFVLVAKGGSTCSIEEFKNAARARGYM | not soluble |
| MAHHHHHHMSVCARALWQRSRLLCRCLIMCPTPLSTARWRAGHGWLSRKRGDAEAPPSRERRRHPHANTRHSHAHMMALTLDPRWNAMRRGIAGIGVCAVDGRGGAAAPGSCRLSLCSCLSPASSGGCGGADSALSEGGHCRECVCGMRGRLPSPKKPWNSLAGVLVGVRVTHAASVLEDRPVALGRLVSRLSEAAYKAEMLRTGKRDRDGEDRRGDAAQLLVVDAGTRVTVRTEGDPASGAAVAPSAMHMKGTIAKVNGNATYIILMEKGEVELSVASERIVALQPRKKLFQSARLVALV | soluble |
| MAHHHHHHMTERSPALVPAVSLLREELQLLNGVVEGQARSRVYRHHIFFRKASFLRSALRNALPQFARRAADPTDLRTVAGRLLTLTIRCAESATLELSASHIDTVSVALLLLAITSRIGCVLCVVLGRKPETFGKLHFIGSKFGVKYKRSRSEAELAEETIGVATPIRRRTIGGVIEAVIK | not soluble |
| MAHHHHHHMTNKKKMSNSETGGTRCVYVLSDIDGFKYRLVMEGDVRLLTTSKLKRYLQNATGLSAQQQELSFRGRVMQDGECGGDVGLVDGAVLQLRHVKGMRRTNSGDGRRVNRLPSSSMSMGGVAHRGRSSVVDAASCASPTAGLLTPLQGSHPRDGQNGGEAFTSPPPREMNYRSKRMGREAHALEIENARLEERLLEMERRLANASSDWRLQEEIEQLKGIIAQLLREKEAVGRSAEEKWRAKEEELVKELDLMREERRRLHREQTLFEEEQRALVRSLEEQVRSQQQRLLEQGTTITQQTRQRQPAMNVAEKVEKSLKQLSLELNIPQLHLDDNDTCVLPLGDGTNILVTLDTITERLFMYAVIANSLPSNAGKRLELFEMLLEGALLGRDMATGGVGVCLRNELIIMNVCVDIVHADEYALASIARPFMESVQHWSEAVKKMMPEKKN | not soluble |
| MAHHHHHHMTQQRGKKAAPSKAAVANASASAPDPPPFFSMGPATFTDAIVITKVISVVLPLRHLRDRNILHTTLLKKLLHRPYEASAEDLAQQQLSQQETDDGGKHDCGAHSALDNLAAPTSSSSSTPYVIVHIKSAEIHADTARQVNPRGDVQVNVMVTLVAARLQHGICAGVSEASPFTSCMQVRVPTVAVSAAVAARGSTDDAATLLLGDALEAGADNVSQEGVKDEKAEPSGGDTALDASVSATTTAAAAKRSCCTGIPADQQLRVTARCLEDEPIVPGQAVLLISEPAAMRCMGIRPPRAAPGSFYLTETTQPSAQFSSGEAEGGPEARPKKRARKSRASAGGTGGATPARRIVSIECAIPKREEDGEGGAAAGPRKGPRKRPHT | not soluble |
| MAHHHHHHMTTLPVLHLKATSLQNVTIAADLSDTTATLYTFLRSTPSAAETELALQPFLESLHAAPSSGRAALMRRPNHHLVQLLESVAVDGVFRCTPHVLPALARHSDRWLHRLGYASMDGEAANLTAVMDSSAHAASGSQRSASPPTAAPFPIMRVRATDMHQYVDPYSAYEADYLGRQEAARSSYVDASASGEARLPTNGSAAESGGLQHRDTTHPHEEASSVSAEVSALTAPGDEPQLSEPAPSASHAVTPAPTAALTSAPAIHPVLHLIANQVLQQQEEGEKTGRENAEERAHPSSSHAVLDEKLHRLMAQLNEAETQLTAAMAEKEATEQVWLPYYSRLKTSRVYVNELKSRLQSAASLYLLQRYERETLQQAHIGVAMESISLQLVLRDVRARLEDEQRSSLTDGHHQATESDRLAQQLSAVLGVPAAASQRNAACDRTN | not soluble |
| MAHHHHHHMVAKRKEFELTKVIQEATFLTFKGLDTHDVYNCCVPFKISGTYHIFGRVERRSEWVNSHVRLFRKTGHDEYTLVEHAMQYQLEDPFLVKINNEALFGGVRVTKDHGKVSGYVCDFYRGKIDDLHYFTSGPQNMKDIRLVVLADGKIGVFSHHKTSNTCITGFTIIDSLDDLCSQVIDSAKPIDHTLFGDAWGGVNQPYLLSTGKIGCISHHGYLDTDAHGEVINVYCITSFVYQPSANKCYDYKILGTKNCFPDYPAKALKLIDCAFVSGIVMREDGKCDLYSGVGDTREGRMVIDYPFEGHGTIADDLDF | not soluble |
| MAHHHHHHMVHWVISQFTTNVGLQQKSSIELLNEANREYESSSPFSVLVQHERAVERLTTAQRGLAASGAGSLARLDRDQLPSWTLRVIDEDCTMCFDNVTYASAVAADAGRSTNKTGHHKQKGLSVFATTSAPLGLMGPMLFAMASVTDDVDVAAELPRWQWVTWSYAQQRRFVHASQSRSTGERPRHLIVLGIPSTDQPMRYPLRDAQRATWLTYREVARTENNFTGALLQLYVFAAAEHDSEDSTHSAVDMVQLAPTVSEYAAATEQHLAVEAGDVNNAPPYLQRRVVLRDGWRDIPRSDDAVWRSPCAGVRTTVVTAASLVAGTSSLAALSAQLSLPVTPAFTAAAQYVCHVSAALWQEALHHRNSLWLDFLTDRKPTTKKKMGMSISWGIPTEVGMSQKTVLWLNYAYTAFPDVPYIMKGDDDMYLKVPQYLSDLRHVRGGWQKPRNLTVTIPHRGVIPPTLAIDDAEECLYRVWWTYSKKIAYGNGVGYILDRRLIQAALNPFDGFNALLMKLLTNPYDYRLEKEYLSLNMQYEDMHIGKQIRDHHDAVERFCPKKRVCYMADRRFRAHQILRPKPVKLTWISVMAHFGMPAIPYYVHYFHKNEFKVAEEAKRLIAQGIDAKTIEENATQRMHEWVASQVPSTLVGLGASFHLDWVRGDPHTAYTVAEEDEVAVYDVRYKLRRRNDVACVLESGKR | not soluble |
| MAHHHHHHMVMNDITKSDTHERKDEVTMDKGGMFNNFFECMNEQMKRIDRYHEDMSRMMNSMRTHYFSDELSKYFPSRRSLLDYDLGDARRNDLFFGKPQFLMDRFKNVPPMDVVDKDKEIEIKIDVPGLSKDNVQINLYNRNLEVSGDFKKTEETRDDEQRYYVKERSQTSFYRSFQLPENVCEDNIKATFKDGVLKIDIPKKDVLPEKKKKIEIQ | soluble |
| MAHHHHHHMYVRSISKELTKRMYNPSGHRIMMMDLKNKTTNNILNSRRYIVSYTKVHRTHYLEDYYTNPEIATNMISPMSEYIWWSWLLLQVN | not soluble |
| MAHHHHHHNQQNKKVEGGYECKYCTFQTPDLNMFTFHVDSEHPNVVLNSSYVCVECNFLTKRYDALSEHNLKYHPGEENFKLTMVKRNNQTIFEQTINDLTF | soluble |
| MAHHHHHHSAARRRASGENLQQTRPIAAANLQWESYAEALEHSKQDHKPIGLFFTGSDWCMWCIKMQDQILQSSEFKHFAGVHLHMVEVDFPQKNHQPEEQRQKNQELKAQYKVTGFPELVFIDAEGKQLARMGFEPGGGAAYVSKVKSALKLR | soluble |
| MAHHHHHHSLKQKNAYNRLTNHYDDVLTGRKWWSWLYMHCLWKTDDNIIAGSVLDMIPGNFEGRILDVPVGTAIFTYDKYRRMPQAEIVGLDYSQEMLDIAAMRFSAEQITNVSLRQGDVGSLPFPDAAFDLVLSMNGFHVFPDKDRAFAETFRVLRGGGLFCGCFYVKGERKPADWFVRKFLDKKGLFRPPHYTREEAIEKLRSLYGDNVEIQDARSLLVFKCTKPREG | soluble |
| MAHHHHHHSLSDLKIARIDVFQVDLPYSGGVYYLSAGREYRSFDATIVRITTDTGIEGWGESTPFGSNYIASHPRGVRAGIATMAPSLIGLDPRRVDRINDAMDDALLGHEDAKTAIDVACWDIFGKSVGLPVCELLGGRTNTRLPLISSIYVGEPEDMRARVAKYRAKGYKGQSVKISGEPVTDAKRITAALANQQPDEFFIVDANGKLSVETALRLLRLLPHGLDFALEAPCATWRECISLRRKTDIPIIYDELATNEMSIVKILADDAAEGIDLKISKAGGLTRGRRQRDICLAAGYSVSVQETCGSDIAFAAIVHLAQTIPERSLRCILECRDMVTVKTADGAFDIQDGFATAPTTPGLGIMPRLDVLGEAVASYF | soluble |
| MAHNNYLDLEMLFNECNAQHYENLGMFFKWLQQFAAHHEDPKITIKDFKGDKTSGEMILHVNTFTLFKYRQEFDMKVSALNDNGLGWKILFVDRSLGCN | not soluble |
| MAIEIKVPDIGADEVEITEILVKVGDKVEAEQSLITVEGDKASMEVPSPQAGIVKEIKVSVGDKTQTGALIMIFDSADGAADAAPAQAEEKKEAAPAAAPAAAAAKDVNVPDIGSDEVEVTEILVKVGDKVEAEQSLITVEGDKASMEVPAPFAGTVKEIKVNVGDKVSTGSLIMVFEVAGEAGAAAPAAKQEAAPAAAPAPAAGVKEVNVPDIGGDEVEVTEVMVKVGDKVAAEQSLITVEGDKASMEVPAPFAGVVKELKVNVGDKVKTGSLIMIFEVEGAAPAAAPAKQEAAAPAPAAKAEAPAAAPAAKAEGKSEFAENDAYVHATPLIRRLAREFGVNLAKVKGTGRKGRILREDVQAYVKEAIKRAEAAPAATGGGIPGMLPWPKVDFSKFGEIEEVELGRIQKISGANLSRNWVMIPHVTHFDKTDITELEAFRKQQNEEAAKRKLDVKITPVVFIMKAVAAALEQMPRFNSSLSEDGQRLTLKKYINIGVAVDTPNGLVVPVFKDVNKKGIIELSRELMTISKKARDGKLTAGEMQGGCFTISSIGGLGTTHFAPIVNAPEVAILGVSKSAMEPVWNGKEFVPRLMLPISLSFDHRVIDGADGARFITIINNTLSDIRRLVM | soluble |
| MAIFRDQAENHVEHDRSIEDRRRHRQLVEKSIKENLGDILSEESIIGETKNKKYKIPIRGIKEYQFIYGANNKGVTTGTGEERRGDRISSDKRKAISNNKAGNQEGKDIYETEITLEELMDYIVEDLDLPNLDRKKYSEIIVESAAKKRGYQKYGVRPRLAKKKTVMCKIARKQGKKRALREIGEEAEIGRFPFREDDLRYYKVKKHPKKESNAVMIFIMDVSGSMDNTKKYLARSFFFVLSRFIRRKYNNVAFEFISHTTTAKNVNEYEFFHKGESGGTYISSGINAAIDLIKEKYNPGVWNIYPFYASDGDNWSEDNEKAMEAVNEISDLSNMFGYIELLPSTYSTTMFYRFKKEISKENFVSVTVKEKKDLWNAIKYMLSEELQEKNKELEHHHHHH | not soluble |
| MAIKGLEQAVENLSRISRTAVPGAAAMAINRVASSAISQSASQVARETKVRRKLVKERARLKRATVKNPQARIKVNRGDLPVIKLGNARVVLSRRRRRKKGQRSSLKGGGSVLVVGNRRIPGAFIQQLKNGRWHVMQRVAGKNRYPIDVVKIPMAVPLTTAFKQNIEQIRRERLPKELGYALQHQLRMVIKR | not soluble |
